Measurements taken from patent publication US20030186334A1, “KTS-disintegrins” (Temple University - Of the Commonwealth System of Higher …, priority 2001, published 2003).

T1: αvβ3 integrin, P06756
T1 chain 1: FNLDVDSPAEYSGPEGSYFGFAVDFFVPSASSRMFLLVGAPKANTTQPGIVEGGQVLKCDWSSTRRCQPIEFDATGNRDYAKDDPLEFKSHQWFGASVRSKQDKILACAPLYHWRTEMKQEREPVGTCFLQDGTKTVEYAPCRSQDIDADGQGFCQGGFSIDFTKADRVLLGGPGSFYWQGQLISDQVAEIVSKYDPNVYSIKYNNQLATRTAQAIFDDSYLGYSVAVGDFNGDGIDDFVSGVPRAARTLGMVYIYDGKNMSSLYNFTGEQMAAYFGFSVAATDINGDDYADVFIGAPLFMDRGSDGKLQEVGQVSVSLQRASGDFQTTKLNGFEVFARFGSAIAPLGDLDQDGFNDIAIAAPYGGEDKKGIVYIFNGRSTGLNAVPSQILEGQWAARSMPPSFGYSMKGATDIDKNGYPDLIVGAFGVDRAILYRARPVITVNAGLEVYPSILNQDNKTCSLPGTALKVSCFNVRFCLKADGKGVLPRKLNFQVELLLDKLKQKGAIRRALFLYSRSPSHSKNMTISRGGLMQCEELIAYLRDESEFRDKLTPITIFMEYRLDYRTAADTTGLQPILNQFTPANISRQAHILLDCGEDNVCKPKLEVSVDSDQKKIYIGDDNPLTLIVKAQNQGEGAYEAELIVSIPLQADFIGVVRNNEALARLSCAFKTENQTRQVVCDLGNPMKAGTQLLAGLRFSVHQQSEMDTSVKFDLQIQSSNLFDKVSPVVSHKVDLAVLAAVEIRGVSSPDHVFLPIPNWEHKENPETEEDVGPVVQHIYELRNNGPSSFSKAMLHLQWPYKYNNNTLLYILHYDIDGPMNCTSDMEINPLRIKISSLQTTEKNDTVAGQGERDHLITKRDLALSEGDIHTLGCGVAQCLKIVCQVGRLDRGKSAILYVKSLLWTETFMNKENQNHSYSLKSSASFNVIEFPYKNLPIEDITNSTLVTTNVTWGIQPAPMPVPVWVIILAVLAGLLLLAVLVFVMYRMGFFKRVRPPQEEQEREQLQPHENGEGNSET
T1 chain 2: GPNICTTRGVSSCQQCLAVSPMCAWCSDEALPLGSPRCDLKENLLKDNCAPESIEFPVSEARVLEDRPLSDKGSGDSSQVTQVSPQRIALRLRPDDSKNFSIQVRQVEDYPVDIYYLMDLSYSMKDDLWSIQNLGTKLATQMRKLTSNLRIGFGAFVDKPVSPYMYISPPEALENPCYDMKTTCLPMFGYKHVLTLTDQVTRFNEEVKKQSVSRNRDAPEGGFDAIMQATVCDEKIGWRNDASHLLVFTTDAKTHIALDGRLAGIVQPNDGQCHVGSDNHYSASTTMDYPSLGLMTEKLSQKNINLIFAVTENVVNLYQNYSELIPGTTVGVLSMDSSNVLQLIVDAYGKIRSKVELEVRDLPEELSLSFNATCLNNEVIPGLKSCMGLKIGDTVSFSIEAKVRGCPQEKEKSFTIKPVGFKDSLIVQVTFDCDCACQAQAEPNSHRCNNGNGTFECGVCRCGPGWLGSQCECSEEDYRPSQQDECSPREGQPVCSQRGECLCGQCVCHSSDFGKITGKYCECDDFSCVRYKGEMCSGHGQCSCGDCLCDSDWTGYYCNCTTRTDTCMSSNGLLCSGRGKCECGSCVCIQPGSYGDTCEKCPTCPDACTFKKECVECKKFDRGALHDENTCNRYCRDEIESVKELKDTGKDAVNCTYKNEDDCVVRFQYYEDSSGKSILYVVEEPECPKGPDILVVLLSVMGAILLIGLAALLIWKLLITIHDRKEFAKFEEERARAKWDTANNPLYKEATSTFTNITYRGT

T2: mouse α1β1 integrin (mouse), Q3V3R4
T2 chain 1: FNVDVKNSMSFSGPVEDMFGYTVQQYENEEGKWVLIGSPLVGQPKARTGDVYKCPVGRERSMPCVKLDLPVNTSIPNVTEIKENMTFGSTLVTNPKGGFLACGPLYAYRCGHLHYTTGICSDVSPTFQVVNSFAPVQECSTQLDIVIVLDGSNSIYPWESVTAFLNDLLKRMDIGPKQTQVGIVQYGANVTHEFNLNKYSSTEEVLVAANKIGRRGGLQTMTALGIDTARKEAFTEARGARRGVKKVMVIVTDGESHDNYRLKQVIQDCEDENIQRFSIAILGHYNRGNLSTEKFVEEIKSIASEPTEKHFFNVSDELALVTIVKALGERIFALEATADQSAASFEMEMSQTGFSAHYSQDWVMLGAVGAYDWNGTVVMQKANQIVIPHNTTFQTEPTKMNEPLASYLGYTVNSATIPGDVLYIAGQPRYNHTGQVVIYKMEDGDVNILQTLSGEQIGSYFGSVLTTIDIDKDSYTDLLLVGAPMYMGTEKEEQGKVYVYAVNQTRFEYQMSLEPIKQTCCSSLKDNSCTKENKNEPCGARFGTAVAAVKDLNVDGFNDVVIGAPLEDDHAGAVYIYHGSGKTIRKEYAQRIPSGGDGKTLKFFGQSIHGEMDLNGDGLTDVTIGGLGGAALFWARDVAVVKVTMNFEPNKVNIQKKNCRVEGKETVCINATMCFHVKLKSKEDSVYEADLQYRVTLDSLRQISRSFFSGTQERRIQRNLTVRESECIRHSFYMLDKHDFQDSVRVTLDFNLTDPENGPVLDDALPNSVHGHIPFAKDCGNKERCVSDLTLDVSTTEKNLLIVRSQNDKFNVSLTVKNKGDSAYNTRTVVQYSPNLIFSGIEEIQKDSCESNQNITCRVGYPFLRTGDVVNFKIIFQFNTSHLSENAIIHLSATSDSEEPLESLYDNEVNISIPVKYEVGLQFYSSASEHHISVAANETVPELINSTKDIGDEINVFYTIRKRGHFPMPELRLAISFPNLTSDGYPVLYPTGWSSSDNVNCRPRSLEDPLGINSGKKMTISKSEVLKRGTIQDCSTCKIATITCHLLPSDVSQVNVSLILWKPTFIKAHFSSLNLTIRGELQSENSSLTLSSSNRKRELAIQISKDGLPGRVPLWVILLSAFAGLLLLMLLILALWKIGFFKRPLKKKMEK
T2 chain 2: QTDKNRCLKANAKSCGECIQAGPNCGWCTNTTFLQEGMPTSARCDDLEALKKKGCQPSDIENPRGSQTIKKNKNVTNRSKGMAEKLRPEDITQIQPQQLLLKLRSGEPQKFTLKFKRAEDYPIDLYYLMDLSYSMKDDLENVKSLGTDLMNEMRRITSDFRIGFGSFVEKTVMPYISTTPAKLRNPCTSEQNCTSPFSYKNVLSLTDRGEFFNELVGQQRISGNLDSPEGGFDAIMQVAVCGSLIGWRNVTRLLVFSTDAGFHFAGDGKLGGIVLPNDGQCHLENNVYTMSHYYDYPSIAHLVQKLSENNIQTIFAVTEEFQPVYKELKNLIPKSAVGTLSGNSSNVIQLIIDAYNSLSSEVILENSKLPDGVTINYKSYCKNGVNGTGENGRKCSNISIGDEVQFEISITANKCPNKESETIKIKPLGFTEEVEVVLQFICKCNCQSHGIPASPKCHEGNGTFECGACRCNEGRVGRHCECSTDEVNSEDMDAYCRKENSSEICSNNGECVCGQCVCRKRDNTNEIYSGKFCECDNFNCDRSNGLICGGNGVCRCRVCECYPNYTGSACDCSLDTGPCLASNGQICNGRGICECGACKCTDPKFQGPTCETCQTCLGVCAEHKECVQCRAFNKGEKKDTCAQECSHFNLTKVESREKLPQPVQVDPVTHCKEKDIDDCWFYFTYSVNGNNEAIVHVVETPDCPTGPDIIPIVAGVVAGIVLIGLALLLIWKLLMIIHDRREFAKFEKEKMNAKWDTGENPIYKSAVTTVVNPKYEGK


The binders below were run against α5β1 integrin, P08648 (assay: inhibition of adhesion of K562 cells to fibronectin).
Target sequence in this assay (P08648 42-1049): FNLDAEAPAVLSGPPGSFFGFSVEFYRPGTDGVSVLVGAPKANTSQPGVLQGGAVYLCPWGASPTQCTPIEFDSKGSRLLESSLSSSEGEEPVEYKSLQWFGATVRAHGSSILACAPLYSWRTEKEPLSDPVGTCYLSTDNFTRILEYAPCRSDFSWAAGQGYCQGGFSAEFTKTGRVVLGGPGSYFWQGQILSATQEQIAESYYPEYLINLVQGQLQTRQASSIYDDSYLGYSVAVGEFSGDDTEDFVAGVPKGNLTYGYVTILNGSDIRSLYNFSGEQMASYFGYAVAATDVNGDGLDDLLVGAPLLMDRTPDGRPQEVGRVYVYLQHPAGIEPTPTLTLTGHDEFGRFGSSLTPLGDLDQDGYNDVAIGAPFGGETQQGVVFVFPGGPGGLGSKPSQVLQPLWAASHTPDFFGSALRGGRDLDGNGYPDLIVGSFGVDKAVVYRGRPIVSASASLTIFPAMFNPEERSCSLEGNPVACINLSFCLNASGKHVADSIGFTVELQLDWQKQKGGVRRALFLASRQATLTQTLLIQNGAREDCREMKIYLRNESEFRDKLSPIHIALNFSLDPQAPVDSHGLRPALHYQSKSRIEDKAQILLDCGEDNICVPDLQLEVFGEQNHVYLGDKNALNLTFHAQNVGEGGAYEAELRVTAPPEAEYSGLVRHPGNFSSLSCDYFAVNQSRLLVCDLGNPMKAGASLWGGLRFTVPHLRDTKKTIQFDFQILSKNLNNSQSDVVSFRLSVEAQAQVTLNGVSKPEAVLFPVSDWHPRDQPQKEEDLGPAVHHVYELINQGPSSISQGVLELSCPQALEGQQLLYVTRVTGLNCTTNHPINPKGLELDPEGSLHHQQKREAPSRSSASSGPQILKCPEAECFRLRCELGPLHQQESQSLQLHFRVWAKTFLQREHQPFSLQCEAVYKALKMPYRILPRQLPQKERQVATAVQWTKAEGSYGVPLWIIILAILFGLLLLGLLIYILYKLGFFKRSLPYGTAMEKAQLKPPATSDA
QEEPCATGPCCRRCKFKRAGKVCRVARGDWNDDYCTGKSCDCPKNPWNG (modifications not checked) [eristostatin, P0C6S4 1-49] was tested, and the IC50 was > 10 µM.

Target: α5β1 integrin, P08648
Assay: as above
Remark: another data set of the same source
Target sequence in this assay (P08648 42-1049, chain 1 of 2): as the sequence (P08648 42-1049) above
Target sequence in this assay (P05556 21-798, chain 2 of 2, further chain): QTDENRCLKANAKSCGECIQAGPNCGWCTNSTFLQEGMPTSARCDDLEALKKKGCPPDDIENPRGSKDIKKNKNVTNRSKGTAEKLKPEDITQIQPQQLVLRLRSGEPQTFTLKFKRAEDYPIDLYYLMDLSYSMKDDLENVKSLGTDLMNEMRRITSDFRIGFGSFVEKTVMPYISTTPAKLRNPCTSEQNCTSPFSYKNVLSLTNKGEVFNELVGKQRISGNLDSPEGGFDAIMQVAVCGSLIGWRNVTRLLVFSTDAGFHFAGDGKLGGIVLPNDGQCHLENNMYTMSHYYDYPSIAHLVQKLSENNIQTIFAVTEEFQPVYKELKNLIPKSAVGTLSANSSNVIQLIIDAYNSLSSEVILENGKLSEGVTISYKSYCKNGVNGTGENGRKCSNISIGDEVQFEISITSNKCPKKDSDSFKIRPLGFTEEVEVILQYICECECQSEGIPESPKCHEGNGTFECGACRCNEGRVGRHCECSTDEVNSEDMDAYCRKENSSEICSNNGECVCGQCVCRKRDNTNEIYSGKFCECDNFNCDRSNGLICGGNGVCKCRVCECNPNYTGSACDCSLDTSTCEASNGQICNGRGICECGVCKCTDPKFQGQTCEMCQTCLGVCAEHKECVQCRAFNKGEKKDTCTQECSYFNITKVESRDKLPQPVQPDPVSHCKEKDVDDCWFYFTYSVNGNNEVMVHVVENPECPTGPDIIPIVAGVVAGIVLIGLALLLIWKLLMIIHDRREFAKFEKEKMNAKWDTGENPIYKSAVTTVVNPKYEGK
For CTTGPCCRQCKLKPAGTTCWKTSRTSHYCTGKSCDCPVYQG (modifications not checked) [viperisrastatin], the IC50 was > 10 µM.

Target: T1, αvβ3 integrin, P06756
Assay: inhibition of adhesion of JY cells to vitronectin
QEEPCATGPCCRRCKFKRAGKVCRVARGDWNDDYCTGKSCDCPKNPWNG (modifications not checked) [eristostatin, P0C6S4 1-49] gave an IC50 of 2 µM. For CTTGPCCRQCKLKPAGTTCWKTSRTSHYCTGKSCDCPVYQG (modifications not checked) [viperisrastatin], the IC50 was > 10 µM.

The binders below were run against α2β1 integrin, P17301 (assay: inhibition of adhesion of α2K562 cells to collagen I).
QEEPCATGPCCRRCKFKRAGKVCRVARGDWNDDYCTGKSCDCPKNPWNG (modifications not checked) [eristostatin, P0C6S4 1-49] was tested, and the IC50 was > 10 µM. In the case of CTTGPCCRQCKLKPAGTTCWKTSRTSHYCTGKSCDCPVYQG (modifications not checked) [viperisrastatin], the IC50 is reported as > 10 µM.

The binders below were run against αIIbβ3 integrin, P08514 (assay: inhibition of adhesion of A5 cells to fibrinogen).
For QEEPCATGPCCRRCKFKRAGKVCRVARGDWNDDYCTGKSCDCPKNPWNG (modifications not checked) [eristostatin, P0C6S4 1-49], the IC50 was 0.05 µM. In the case of CTTGPCCRQCKLKPAGTTCWKTSRTSHYCTGKSCDCPVYQG (modifications not checked) [viperisrastatin], the IC50 is reported as > 10 µM.

Each binder was assayed against human α1β1 integrin (human), P56199 (assay: inhibition of adhesion of α1K562 cells to immobilised collagen IV).
In the case of CWKTSLTSHYC (modifications not checked) [synthetic peptide … (SEQ ID NO: 5)], the IC50 is reported as 600 µM.

These binders were tested against human α1β1 integrin (human), P56199 (assay: inhibition of adhesion of HS.939T cells to collagen IV).
With QEEPCATGPCCRRCKFKRAGKVCRVARGDWNDDYCTGKSCDCPKNPWNG (modifications not checked) [eristostatin, P0C6S4 1-49] the IC50 was > 10000 nM. Work on CTTGPCCRQCKLKPAGTTCWKTSRTSHYCTGKSCDCPVYQG (modifications not checked) [viperisrastatin] yielded an IC50 of 0.002 nM.

Each binder was assayed against human α1β1 integrin (human), P56199 (assay: inhibition of adhesion of α1K562 cells to collagen I).
QEEPCATGPCCRRCKFKRAGKVCRVARGDWNDDYCTGKSCDCPKNPWNG (modifications not checked) [eristostatin, P0C6S4 1-49] was tested, and the IC50 was > 10000 nM. CTTGPCCRQCKLKPAGTTCWKTSRTSHYCTGKSCDCPVYQG (modifications not checked) [viperisrastatin] was tested, and the IC50 was 0.02 nM.

These binders were tested against α9β1 integrin, Q13797 (assay: inhibition of adhesion of SW480α9 cells to VCAM-1).
α9β1 integrin, Q13797, sequence (Q13797 30-1035): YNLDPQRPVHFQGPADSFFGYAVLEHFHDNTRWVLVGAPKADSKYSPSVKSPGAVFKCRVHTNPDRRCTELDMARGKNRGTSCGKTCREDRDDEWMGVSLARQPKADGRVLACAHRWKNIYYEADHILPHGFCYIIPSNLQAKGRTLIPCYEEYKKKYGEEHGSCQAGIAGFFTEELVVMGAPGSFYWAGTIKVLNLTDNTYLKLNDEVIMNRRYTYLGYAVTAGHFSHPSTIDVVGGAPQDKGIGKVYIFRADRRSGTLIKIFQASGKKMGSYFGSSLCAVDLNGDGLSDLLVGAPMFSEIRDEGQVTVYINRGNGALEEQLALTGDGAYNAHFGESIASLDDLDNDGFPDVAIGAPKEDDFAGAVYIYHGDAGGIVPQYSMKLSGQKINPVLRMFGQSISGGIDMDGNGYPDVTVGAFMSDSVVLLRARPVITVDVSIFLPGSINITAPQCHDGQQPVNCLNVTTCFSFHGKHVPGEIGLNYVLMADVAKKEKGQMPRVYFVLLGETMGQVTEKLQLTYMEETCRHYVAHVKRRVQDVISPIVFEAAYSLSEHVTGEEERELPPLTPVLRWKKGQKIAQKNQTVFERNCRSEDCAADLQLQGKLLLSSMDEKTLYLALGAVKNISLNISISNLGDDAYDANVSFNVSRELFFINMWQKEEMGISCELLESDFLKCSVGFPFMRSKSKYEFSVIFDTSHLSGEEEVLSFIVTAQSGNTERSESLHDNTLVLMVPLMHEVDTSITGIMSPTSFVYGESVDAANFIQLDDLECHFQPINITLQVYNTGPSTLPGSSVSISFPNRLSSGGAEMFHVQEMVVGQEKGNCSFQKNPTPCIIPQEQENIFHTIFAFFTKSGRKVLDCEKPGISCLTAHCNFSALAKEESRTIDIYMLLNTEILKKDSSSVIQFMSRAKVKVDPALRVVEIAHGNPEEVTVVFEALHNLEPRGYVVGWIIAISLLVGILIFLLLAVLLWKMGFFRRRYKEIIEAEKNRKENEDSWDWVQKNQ
With QEEPCATGPCCRRCKFKRAGKVCRVARGDWNDDYCTGKSCDCPKNPWNG (modifications not checked) [eristostatin, P0C6S4 1-49] the IC50 was > 10 µM. In the case of CTTGPCCRQCKLKPAGTTCWKTSRTSHYCTGKSCDCPVYQG (modifications not checked) [viperisrastatin], the IC50 is reported as > 10 µM.

Target: T2, mouse α1β1 integrin (mouse), Q3V3R4
Assay: inhibition of adhesion of B16F10 cells to collagen IV
For QEEPCATGPCCRRCKFKRAGKVCRVARGDWNDDYCTGKSCDCPKNPWNG (modifications not checked) [eristostatin, P0C6S4 1-49], the IC50 was > 10 µM. CTTGPCCRQCKLKPAGTTCWKTSRTSHYCTGKSCDCPVYQG (modifications not checked) [viperisrastatin] was tested, and the IC50 was 0.00025 µM.

Target: αIIbβ3 integrin, P08514
Assay: inhibition of adhesion of A5 cells to fibrinogen
Remark: another data set of the same source
QEEPCATGPCCRRCKFKRAGKVCRVARGDWNDDYCTGKSCDCPKNPWNG (modifications not checked) [eristostatin, P0C6S4 1-49] showed an IC50 of 0.005 µM.

These binders were tested against human α1β1 integrin (human), P56199 (assay: inhibition of adhesion of α1K562 cells to collagen IV).
In the case of QEEPCATGPCCRRCKFKRAGKVCRVARGDWNDDYCTGKSCDCPKNPWNG (modifications not checked) [eristostatin, P0C6S4 1-49], the IC50 is reported as > 10000 nM. For CTTGPCCRQCKLKPAGTTCWKTSRTSHYCTGKSCDCPVYQG (modifications not checked) [viperisrastatin], the IC50 was 0.08 nM.

Each binder was assayed against α4β1 integrin, P13612 (assay: inhibition of adhesion of Jurkat cells to VCAM-1).
QEEPCATGPCCRRCKFKRAGKVCRVARGDWNDDYCTGKSCDCPKNPWNG (modifications not checked) [eristostatin, P0C6S4 1-49] was tested, and the IC50 was > 10 µM. CTTGPCCRQCKLKPAGTTCWKTSRTSHYCTGKSCDCPVYQG (modifications not checked) [viperisrastatin] was tested, and the IC50 was > 10 µM.
